Reference: IntAct's records for PubMed 26235031

B1: Adhesion G protein-coupled receptor L3 (Mus musculus), Q80TS3 (parent)
chain: MWPPQLLILTMLLAPVVHGGKHNERHPALAAPLRHAERSPGGALPPRHLLQQPAAERSTAHRGQGPRGAARGVRGPGAPGAQIAAQAFSRAPIPMAVVRRELSCESYPIELRCPGTDVIMIESANYGRTDDKICDSDPAQMENIRCYLPDAYKIMSQRCNNRTQCAVVAGPDVFPDPCPGTYKYLEVQYECVPYKVEQKVFLCPGLLKGVYQSEHLFESDHQSGAWCKDPLQASDKIYYMPWTPYRTDTLTEYSSKDDFIAGRPTTTYKLPHRVDGTGFVVYDGALFFNKERTRNIVKFDLRTRIKSGEAIIANANYHDTSPYRWGGKSDIDLAVDENGLWVIYATEQNNGKIVISQLNPYTLRIEGTWDTAYDKRSASNAFMICGILYVVKSVYEDDDNEATGNKIDYIYNTDQSKDSLVDVPFPNSYQYIAAVDYNPRDNLLYVWNNYHVVKYSLDFGPLDSRSGPVHHGQVSYISPPIHLDSELERPPVRGISTTGSLGMGSTTTSTTLRTTTWNIGRSTTASLPGRRNRSTSTPSPAVEVLDDVTTHLPSAASQIPAMEESCEAVEAREIMWFKTRQGQVAKQPCPAGTIGVSTYLCLAPDGIWDPQGPDLSNCSSPWVNHITQKLKSGETAANIARELAEQTRNHLNAGDITYSVRAMDQLVGLLDVQLRNLTPGGKDSAARSLNKLQKRERSCRAYVQAMVETVNNLLQPQALNAWRDLTTSDQLRAATMLLDTVEESAFVLADNLLKTDIVRENTDNIQLEVARLSTEGNLEDLKFPENMGHGSTIQLSANTLKQNGRNGEIRVAFVLYNNLGPYLSTENASMKLGTEAMSTNHSVIVNSPVITAAINKEFSNKVYLADPVVFTVKHIKQSEENFNPNCSFWSYSKRTMTGYWSTQGCRLLTTNKTHTTCSCNHLTNFAVLMAHVEVKHSDAVHDLLLDVITWVGILLSLVCLLICIFTFCFFRGLQSDRNTIHKNLCISLFVAELLFLIGINRTDQPIACAVFAALLHFFFLAAFTWMFLEGVQLYIMLVEVFESEHSRRKYFYLVGYGMPALIVAVSAAVDYRSYGTDKVCWLRLDTYFIWSFIGPATLIIMLNVIFLGIALYKMFHHTAILKPESGCLDNINYEDNRPFIKSWVIGAIALLCLLGLTWAFGLMYINESTVIMAYLFTIFNSLQGMFIFIFHCVLQKKVRKEYGKCLRTHCCSGKSTESSIGSGKTSGSRTPGRYSTGSQSRIRRMWNDTVRKQSESSFITGDINSSASLNREGLLNNARDTSVMDTLPLNGNHGNSYSIAGGEYLSNCVQIIDRGYNHNETALEKKILKELTSNYIPSYLNNHERSSEQNRNMMNKLVNNLGSGSEDDAIVLDDAASFNHEESLGLELIHEESDAPLLPPRVYSTDNHQPHHYSRRRFPQDHSESFFPLLTDEHTEDLQSPHRDSLYTSMPALAGVPAADSVTTSTQTEAAAAKGGDAEDVYYKSMPNLGSRNHVHPLHAYYQLGRGSSDGFIVPPNKDGASPEGTSKGPAHLVTSL
partner: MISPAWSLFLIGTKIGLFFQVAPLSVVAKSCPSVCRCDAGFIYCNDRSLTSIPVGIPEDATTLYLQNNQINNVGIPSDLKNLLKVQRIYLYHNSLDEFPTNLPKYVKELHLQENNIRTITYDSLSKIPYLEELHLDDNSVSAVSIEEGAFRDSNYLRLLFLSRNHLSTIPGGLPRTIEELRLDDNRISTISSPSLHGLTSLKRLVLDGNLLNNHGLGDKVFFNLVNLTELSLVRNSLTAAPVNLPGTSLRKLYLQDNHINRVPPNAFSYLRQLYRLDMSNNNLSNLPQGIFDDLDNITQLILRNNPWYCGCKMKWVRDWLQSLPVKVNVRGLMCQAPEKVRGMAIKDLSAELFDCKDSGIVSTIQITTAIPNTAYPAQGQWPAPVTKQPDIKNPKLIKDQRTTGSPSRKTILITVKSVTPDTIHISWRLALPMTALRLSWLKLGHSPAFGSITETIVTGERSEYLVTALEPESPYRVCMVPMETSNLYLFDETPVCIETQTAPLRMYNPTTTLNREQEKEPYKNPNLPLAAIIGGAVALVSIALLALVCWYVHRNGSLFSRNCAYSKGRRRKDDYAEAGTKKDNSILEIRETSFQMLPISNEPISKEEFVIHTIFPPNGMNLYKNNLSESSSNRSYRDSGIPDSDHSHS
B2: Leucine-rich repeat transmembrane protein FLRT3 (Mus musculus), Q8BGT1 (parent)
chain: B1 partner

Variants of: B1
Details: with flrt3_mouse Flrt3, Q8BGT1

Variant | effect of a mutation on the interaction
Y323A | disrupting interaction strength
D332A | decreasing interaction strength

Variants of: B2
Details: with agrl3_mouse Adgrl3, Q80TS3

Variant | effect of a mutation on the interaction
R117T | decreasing interaction strength
F160A | decreasing interaction strength
F160N | disrupting interaction strength
